Assay results published in patent US20230183318A1 (KOREA UNIVERSITY RESEARCH AND BUSINESS FOUNDATION, published 2023).

Experiments:
[1] = molecular target: T1, dimeric human PD-L1 (PD-L1-Fc), Alexa-488 labelled (human, UniProt Q9NZQ7 19-238, Alexa-488 fluorescent label (sites not given)); assay: flow cytometry of E. coli spheroplasts displaying the variant, 50 nM dimeric PD-L1-Fc-Alexa488
T1 construct: also called dimeric PD-L1-Fc-Alexa488 probe; dimeric PD-L1-Alexa488 probe; not shown: Fc domain of antibody IgG at the C-terminus; GS linker between PD-L1 and Fc
T1 sequence (Q9NZQ7 19-238): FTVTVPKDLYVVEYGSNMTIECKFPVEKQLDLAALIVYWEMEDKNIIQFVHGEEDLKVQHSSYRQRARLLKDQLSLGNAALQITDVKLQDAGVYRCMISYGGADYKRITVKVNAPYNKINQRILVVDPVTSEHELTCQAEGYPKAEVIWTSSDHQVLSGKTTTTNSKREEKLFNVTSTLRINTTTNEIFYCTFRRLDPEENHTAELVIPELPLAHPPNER

[2] = molecular target: T1, dimeric human PD-L1 (PD-L1-Fc), …; assay: flow cytometry of E. coli spheroplasts displaying single clones, fluorescent PD-L1 probe
Method: Single colonies at the final round were incubated like Examples above to overexpress the protein and recover E. coli, respectively, and the peptidoglycan layer was removed and the spheroplasts were fluorescent-labeled, and then the binding ability to PD-L1 was analyzed by measuring the fluorescence signal values using FACSCalibur equipment.

Binder	binding result [1]	binding result [2]
aglycosylated PD-1 variant Q-IITV (F13I, N25Q, N34Q, M46I, N50Q, C69T, N92Q, G100V), displayed on E. coli spheroplasts (receptor, pMopac12-N1pA-PD1_Q-IITV-FLAG; not shown: NlpA leader/anchor of the pMopac12-NlpA-FLAG vector; FLAG tag) LDSPDRPWNPPTISPALLVVTEGDQATFTCSFSQTSESFVLNWYRISPSQQTDKLAAFPEDRSQPGQDTRFRVTQLPNGRDFHMSVVRARRQDSGTYLCVAISLAPKAQIKESLRAELRVTERRAEVPTAHPSPSPRPAGQFQ	binds	–
aglycosylated PD-1 variant Q18, displayed on E. coli spheroplasts (receptor, Single clone of the final sorting round; not shown: NlpA leader/anchor of the pMopac12-NlpA-FLAG vector; FLAG tag) LDSPDRPWNPPTISPALLVVTEGDQATFTCGLPQTSESFVLNWYRIGPSQQMDKLAAFPEDRSQPGQDTRFRVTQLPNGRDFHMSVVRARRQDSGTYLCVAISLAPKVQIKESLRAELRVTERRAEVRTAHPSPSPRSAGQFQ	–	binds
aglycosylated PD-1 variant Q12, displayed on E. coli spheroplasts (receptor, Single clone of the final sorting round; not shown: NlpA leader/anchor of the pMopac12-NlpA-FLAG vector; FLAG tag) LDSPDRPLDPPTISPALLVVTEGDQATFTCSFSQTSKSFVLNWYRISPSQQTDKLAAFPEDRSQPGQDTRFRVTQLPNGRDFHMSVVRARRQDSGTYLCVAISLAPKVQIKESLRAELRVTERRAEVPTAHPSPSPRPACQFQ	–	binds
PD-1 variant N-IITV (F13I, M46I, C69T, G100V), displayed on E. coli spheroplasts (receptor, also called N-IIITV; PD1_N-IITV; not shown: NlpA leader/anchor of the pMopac12-NlpA-FLAG vector; FLAG tag) LDSPDRPWNPPTISPALLVVTEGDNATFTCSFSNTSESFVLNWYRISPSNQTDKLAAFPEDRSQPGQDTRFRVTQLPNGRDFHMSVVRARRNDSGTYLCVAISLAPKAQIKESLRAELRVTERRAEVPTAHPSPSPRPAGQFQ	binds	–

Now from value to binder:

binding result [1]	binding result [2]	Binder
–	binds	aglycosylated PD-1 variant Q33, displayed on E. coli spheroplasts (receptor, Single clone of the final sorting round; not shown: NlpA leader/anchor of the pMopac12-NlpA-FLAG vector; FLAG tag) LDSPDRPWNPPTISPALLVVTEGDQATFTCSFSRTSESFVLNWYRISPSQQTDKLAAFPEDRSQPGQDTRFRVTQLPNGRDFHMSVVGAQRQDSGTYLCVAISLAPKVQIKESLRAELRVTERRAEVPTAHPSPSPRPAGQFQ
–	binds	aglycosylated PD-1 variant Q10, displayed on E. coli spheroplasts (receptor, Single clone of the final sorting round; not shown: NlpA leader/anchor of the pMopac12-NlpA-FLAG vector; FLAG tag) LDSPDRPWNPPTISPALLVVTEGDQATFTCSLSQTSESFVLNWYRISPSQQMDKLAAFPEDRSQPGQDTRFRVTQLPNGRDFHMSVDRARRQDSGSYLCVAISLAPKVQIKESLRAELRVTERRAEVPTAHPSPSPRPAGQFQ
